Data from patent US20250376532A1 (published 2025).

Experiments:
[1] = molecular target: T1, rDR5-IgG4 (recombinant wild type DR5 with IgG4 Fc) (UniProt O14763 56-210, biotinylated for BLI (site not stated)); experiment: BLI
[2] = molecular target: T1, rDR5-IgG4 (recombinant wild type DR5 …); experiment: BLI; remark: listed apart in the source
[3] = molecular target: R104W DR5; experiment: BLI
[4] = molecular target: R104Y DR5; experiment: BLI
[5] = molecular target: T1, rDR5-IgG4 (recombinant wild type DR5 …); experiment: ELISA
[6] = molecular target: T1, rDR5-IgG4 (recombinant wild type DR5 …); experiment: ELISA; remark: listed apart in the source
[7] = molecular target: rDR5-IgG4-Fc EMCR:AACR (98-101) Mut (90s Mut) (UniProt O14763 56-210, biotinylated for BLI (site not stated)); experiment: BLI
[8] = molecular target: rDR5-IgG4-Fc SGE:AAA (135-137) NS Mut; experiment: BLI
[9] = molecular target: rDR5-IgG4-Fc KYGQ:AAGA (45-48) Mut; experiment: BLI
[10] = molecular target: rDR5-IgG4-Fc (UniProt O14763 56-210, biotinylated for BLI (site not stated)); experiment: BLI
[11] = molecular target: DR5 (3RA); experiment: ELISA
[12] = molecular target: DR5 (WT) (UniProt O14763 56-210, biotinylated for BLI (site not stated)); experiment: ELISA
[13] = molecular target: RKCAR DR5; experiment: BLI
[14] = molecular target: Chimp DR5; experiment: BLI
[15] = molecular target: RKCSR DR5; experiment: BLI
[16] = molecular target: Monkey DR5; experiment: BLI
[17] = molecular target: KKCR; experiment: ELISA

Sequence of R104Y DR5 (chain, as listed by the source R104Y): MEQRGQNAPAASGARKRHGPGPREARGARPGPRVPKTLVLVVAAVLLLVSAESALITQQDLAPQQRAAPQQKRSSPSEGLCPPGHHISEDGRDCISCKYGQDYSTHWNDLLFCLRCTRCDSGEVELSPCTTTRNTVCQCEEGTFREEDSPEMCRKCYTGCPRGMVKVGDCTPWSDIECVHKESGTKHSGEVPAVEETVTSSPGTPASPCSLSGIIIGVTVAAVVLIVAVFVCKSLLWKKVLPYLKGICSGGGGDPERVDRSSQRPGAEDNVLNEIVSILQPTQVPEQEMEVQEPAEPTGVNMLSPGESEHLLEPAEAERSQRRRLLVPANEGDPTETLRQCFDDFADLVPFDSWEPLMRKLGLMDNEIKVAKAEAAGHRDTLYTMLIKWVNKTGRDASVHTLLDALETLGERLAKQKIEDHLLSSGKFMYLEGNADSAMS
Sequence of R104W DR5 (chain, as listed by the source R104W): as the sequence (chain, as listed by the source R104Y) above, with Y157W counted along it

B1: lexatumumab (antibody, V domains shown)
VH: EVQLVQSGGGVERPGGSLRLSCAASGFTFDDYGMSWVRQAPGKGLEWVSGINWNGGSTGYADSVKGRVTISRDNAKNSLYLQMNSLRAEDTAVYYCAKILGAGRGWYFDLWGKGTTVTVSS
VL: SSELTQDPAVSVALGQTVRITCQGDSLRSYYASWYQQKPGQAPVLVIYGKNNRPSGIPDRFSGSSSGNTASLTITGAQAEDEADYYCNSRDSSGNHVVFGGGTKLTVL
Kd [1]: 0.519 nM
Kd [2]: 0.0376 nM
Kd [3]: 1.82 nM
Kd [4]: 1.93 nM
Kd [5]: 0.081 nM
Kd [6]: 0.032 nM

B2: KMTR2 (antibody, V domains shown)
VH: QVQLVQSGAEMKKPGASVKVSCKTSGYTFTNYKINWVRQAPGQGLEWMGWMNPDTDSTGYPQKFQGRVTMTRNTSISTAYMELSSLRSEDTAVYYCARSYGSGSYYRDYYYGMDVWGQGTTVTVSS
VL: EIVLTQSPATLSLSPGERATLSCRASQSVSSYLAWYQQKPGQAPRLLIYDASNRATGIPARFSGSGSGTDFTLTISSLEPEDFAVYYCQQRSNWPLTFGGGTKVEIKR
koff [7]: 1.61e-05 s⁻¹
koff [8]: 2.01e-05 s⁻¹
koff [9]: 1e-07 s⁻¹
Kd [10]: < 0.001 nM
Kd [11]: 0.087 nM
Kd [12]: 0.088 nM

B3: Biot-Lexa (antibody, V domains shown)
VH: B1 VH
VL: B1 VL
Kd [13]: 0.266 nM
Kd [14]: < 0.001 nM
Kd [15]: 0.215 nM
Kd [16]: 0.014 nM

B4: Antibody (antibody, V domains shown)
VH: B1 VH
VL: B1 VL
Kd [17]: 1.19 nM
